# Data taken from patent US9202600B2, “Method for production of radioisotope preparations and their use in life science, research, medical application and industry” (priority 2005, dated 2015).
# “Also recorded” adds a separate entry of the source.
# Experiments:
# CD20 = target: T1, CD20 (Homo sapiens, UniProt P11836); assay: Cell binding of the labeled antibody; assay type: cell-based; settings: without extrapolation to infinite antigen excess
# T1 construct: endogenous in cells
# T1 sequence (P11836 1-297): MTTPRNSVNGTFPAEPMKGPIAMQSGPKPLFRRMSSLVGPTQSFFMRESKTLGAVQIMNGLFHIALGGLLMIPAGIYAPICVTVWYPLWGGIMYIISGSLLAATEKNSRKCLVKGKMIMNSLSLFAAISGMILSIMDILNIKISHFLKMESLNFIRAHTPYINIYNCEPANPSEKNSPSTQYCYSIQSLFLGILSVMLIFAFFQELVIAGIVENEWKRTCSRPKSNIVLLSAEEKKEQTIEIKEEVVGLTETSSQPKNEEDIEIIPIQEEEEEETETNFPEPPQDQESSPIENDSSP
# Method: 25-40 μl of the ^149Tb solution characterized above was used immediately for the labeling procedure. The pH was adjusted to 5.5 by adding 60 μl of 3 M CH3COONH4 solution, followed by the addition of 10 μl (40 mg/ml) ascorbic acid. After adding 5 μl of a stock solution of the chelated antibody in PBS (10 mg/ml) the mixture was incubated for 10 min at room temperature, before dilution to a final volume of 1.0 ml in PBS-1% human serum. […] The injection of the radioimmuno-conjugate into the mice was performed 1 h after EOS. The in vitro behavior of the labeled bioconjugate (immunoreactivity, cell binding, cell killing efficiency) has been described in a previous paper [Vranjes S D, Miederer M, Comor J J, Soloviev D, Beyer G-J and the ISOLDE collaboartion. Labeling of monoclonal antibodies with 149-Th for targeted alpha therapy. J Lab Comp Radiopharm 2001; 44:718-720]. With the same antibody the inventors observed up to 55% cell binding without extrapolation to infinite antigen excess.
# Daudi cells = assay: Survival of SCID mice i.v. xenografted with Daudi cells (leukemia model) after immunotherapy or radioimmunotherapy; assay type: in vivo; settings: for protection / disease status over 120 days observation: 5.5 MBq 149Tb-labeled Rituximab (5 μg), single i.v. injection
# Method: Daudi cells (ATCC Nr. CCL-213) were used to simulate a leukemia model in mice. The cells were cultured in RPMI 1640 medium supplemented with 10% heat-inactivated fetal calf serum and 0.5% penicillin (10000 U/ml)/streptomycin (10 mg/ml) (Sigma-Aldrich). The cell suspension to be injected into mice was prepared by centrifuging the culture for 3 min at 1200 rpm, washing with PBS and re-suspending in PBS at 2.5-10^7 cells per ml.
# (§1) The in vivo studies were performed using 26 female SCID mice (C.B.-17/ICR, Iffa Credo) under the authorization Nr: GE 31.1.1049/1879/11. The mice, which were 8 weeks old at the start of the experiment and weighed 20 g on average, were kept in sterile, ventilated boxes. […] Each mouse received 5-10^6 Daudi cells by injection of 0.2 ml cell suspension in PBS into the tail vein. […] According to the authorized protocol the mice were surveyed for 120 days: their behavior was logged each day, their condition was supervised once a week by a veterinarian, and they were weighed three times a week. At the appearance of obvious signs of paralysis, visible tumor masses, or a weight loss of >15%, the mice were sacrificed. One mouse was sacrificed shortly after injection (2 h p.i.) and kept deep-frozen for later analysis, in order to act as a reference for later quantification of the daughter radioactivity distribution.
# The survival of animals until sacrifice because of disease development or the end of the experiment (no disease development) was compared between the different groups according a Kaplan Meier analysis using the Lee-Desu evaluation of the Unistat 3.0 statistical package (Megalon, Novato Calif., USA).
# [1] = Daughter nuclide ingrowth and shelf-life of the 149Tb-labeled bioconjugate; assay type: physicochemical; settings: for increase of the long-lived daughter content, factor: fixed dose applied 4 hours after the final purification of the isotope (EOS)
# Method: Spallation reaction in combination with on line mass separator technology was used for the production of ^149Tb for this study. The radiochemical separation and purification of the […] was relatively easy to perform in about 30 minutes in this specific case, since the inventors started from non-carrier added preparations. The final ^149Tb preparation was obtained in very high purity and in a small volume, the labeling of the bioconjugate was fast (10 minutes) and almost quantitative. The administration of the preparation should be carried out as rapidly as possible after purification of the ^149Tb, since levels of contamination with daughter nuclides will increase with time. For example, application of a fixed dose of the ^149Tb-labeled bioconjugate 4 hours after the final purification of the isotope itself (EOS) leads to an increase of the long-lived daughter content by a factor of 2. According to the preliminary dose estimation one could define a shelf-life for the labelled ^149Tb-labeled bioconjugate of about 4-6 hours. For a longer delay it would be advisable to repurify the ^149Tb from the accumulated daughter products, a process that could be expected to require 30 minutes.
# [2] = Biodistribution of 149Tb-labeled Rituximab and retention of long-lived daughter radioactivity (gamma spectroscopy of organs); assay type: in vivo, SCID mice; settings: for Biodistribution, Liver: SCID mouse, 2 h p.i. (i.v.)
# Method: as §1
# Organ samples were taken from the sacrificed mice and the radioactivity concentration of the long-lived daughter products was determined by using high-resolution gamma spectroscopy (18% HP—Ge detector in combination with the Gamma spectrometer Genie 2000, Canberra). Whole, intact mice, as well as isolated organ samples were measured. Since the radioactivity content of the samples was essentially very low, long measuring times (between 1 and 24 hours) were applied.
# [3] = listed as 149Tb-CHX-A-DTPA-Rituximab
# [4] = Group 3, 5 μg 149Tb-labeled Rituximab (5.55 MBq) i.v. 2 days after Daudi cell inoculation
# [5] = 2 h p.i., listed as 149Tb-CHX-A-DTPA-Rituximab
substance,measurement,setting,value
^149Tb-labeled Rituximab,cell binding,CD20,up to 55%
same,time after which the only mouse of the group was lost (abdominal tumor growth),Daudi cells; 5.5 MBq 149Tb-labeled Rituximab (5 μg Rituximab per animal),48 days
same,protection / disease status over 120 days observation,Daudi cells,almost complete protection; also recorded: long-term survival without evidence of any disease at 120 days
same,protection / disease status over 120 days observation,Daudi cells; [3],without any visible signs of a disease
same,protection / disease status over 120 days observation,Daudi cells; listed as 149Tb-CHX-DTPA-Rituximab,almost completely protected
same,Follow-up (120 days after the therapy): no pathologic changes,Daudi cells; [4],89% no
same,"Follow-up (120 days after the therapy): paralyzed, abdominal tumor",Daudi cells; [4],"11% paralyzed,"
same,"tumor free survival for >120 days, share of treated animals","Daudi cells; SCID mice, single i.v. 5.5 MBq labeled conjugate (5 μg Rituximab) 2 days after i.v. graft of 5·10^6 Daudi cells",89%
same,signs of toxicity over four months,Daudi cells; xenografted SCID mice treated with 149Tb-labeled Rituximab,without detectable signs of toxicity
same,shelf-life,[1]; defined according to the preliminary dose estimation,4 to 6 h
same,"increase of the long-lived daughter content, factor",[1]; listed as 149Tb labeled bioconjugate,increase the activity of the daughter product be by a factor 2. In this way
same,"increase of the long-lived daughter content, factor",[1]; listed as 149Tb-labeled bioconjugate,2
same,"Biodistribution, Body total",[2]; 2 h p.i.,100 % i.d./Organ
same,"Biodistribution, Bone",[2]; 2 h p.i.,9.1 ± 0.7 %/g tissue
same,"Biodistribution, Muscles",[2]; 2 h p.i.,<0.2 %/g tissue
same,"Biodistribution, Bone","[2]; 2 h p.i., bone total calculated as 9 × both femur activity",13 ± 1 % i.d./Organ
same,"Biodistribution, Kidney","[2]; 2 h p.i., both kidneys measured together, listed as 149Tb-CHX-A-DTPA-Rituximab",24 %/g tissue
same,"Biodistribution, Heart",[2]; [5],41 %/g tissue
same,"Biodistribution, Spleen",[2]; [5],42 %/g tissue
same,share of the retained daughter activity located in bone tissue,[2]; 120 days after injection,91.1%
same,"Remaining daughter radioactivity, Blood",[2]; 120 d p.i.,<0.01 % i.d./Organ
same,"Remaining daughter radioactivity, Body total (retention of the long-lived daughter products)",[2]; 120 d p.i.,28.4 ± 4 % i.d./Organ
same,"Remaining daughter radioactivity, Bone",[2]; 120 d p.i.,13 ± 2 %/g tissue
same,"Remaining daughter radioactivity, Heart",[2]; 120 d p.i.,<0.01 % i.d./Organ
same,"Remaining daughter radioactivity, Lung",[2]; 120 d p.i.,<0.01 % i.d./Organ
same,"Remaining daughter radioactivity, Muscles",[2]; 120 d p.i.,<0.02 % i.d./Organ
same,"Remaining daughter radioactivity, Bladder","[2]; 120 d p.i., bladder measured with urine",<0.01 % i.d./Organ
same,"Remaining daughter radioactivity, Bone","[2]; 120 d p.i., bone total calculated as 9 × both femur activity",26 ± 4 % i.d./Organ
same,"Remaining daughter radioactivity, Body total (retention of the long-lived daughter products)","[2]; 120 d p.i., listed as 149Tb-CHX-A-DTPA-Rituximab",28.4±4 % i.d./Organ
same,"Remaining daughter radioactivity, Body total (retention of the long-lived daughter products)","[2]; 120 d p.i., listed as labeled antibody conjugate",28.4±4 % i.d./Organ
same,"Biodistribution, Liver",[2],18 ± 3 % i.d./Organ
same,"Biodistribution, Liver",[2]; [3],18±3 % i.d./Organ
same,primary injected radioactive atoms excreted from the mice,[2]; after 120 days,71.6%
